Here are results for three molecules from publication PMC2823527 (The Journal of Biological Chemistry, 2009).

Read-outs that look alike come from different tables or passages of the source.

B1: Sus1 (natural protein, yeast, UniProt Q6WNK7 1-96, looked up)
chain: MTMDTAQLKSQIQQYLVESGNYELISNELKARLLQEGWVDKVKDLTKSEMNINESTNFTQILSTVEPKALEMVSDSTRETVLKQIREFLEEIVDTQ

For assay [1], the target named is T1, Sgf11 full-length, released from GST (S. cerevisiae, UniProt Q03067 1-99).
T1 sequence (looked up): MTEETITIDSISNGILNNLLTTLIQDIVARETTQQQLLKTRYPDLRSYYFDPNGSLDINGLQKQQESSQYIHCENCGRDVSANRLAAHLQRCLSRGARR
The assay is described as follows: SEC. On the technique in general: Size exclusion chromatography separates by hydrodynamic size, large species first.

Assay [2] deals with T2, GST-Sac3 753-805 / Cdc31 complex (yeast, UniProt P46674 753-805; P06704 1-161).
T2 sequence (looked up) 1: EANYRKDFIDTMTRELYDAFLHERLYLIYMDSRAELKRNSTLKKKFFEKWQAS
T2 sequence (looked up) 2: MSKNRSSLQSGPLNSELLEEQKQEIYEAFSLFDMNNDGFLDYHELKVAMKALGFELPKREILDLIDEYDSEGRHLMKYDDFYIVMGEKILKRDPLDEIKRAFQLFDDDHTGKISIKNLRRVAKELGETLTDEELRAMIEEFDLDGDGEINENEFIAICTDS
The assay is described as follows: pull-down.

Assay [3] addresses T3, GST-Sac3 723-805 / Cdc31 complex (yeast, UniProt P46674 723-805; P06704 1-161).
T3 sequence (looked up) 1: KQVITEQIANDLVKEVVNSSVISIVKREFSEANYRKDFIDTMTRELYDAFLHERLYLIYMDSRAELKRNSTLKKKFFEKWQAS
T3 sequence (looked up) 2: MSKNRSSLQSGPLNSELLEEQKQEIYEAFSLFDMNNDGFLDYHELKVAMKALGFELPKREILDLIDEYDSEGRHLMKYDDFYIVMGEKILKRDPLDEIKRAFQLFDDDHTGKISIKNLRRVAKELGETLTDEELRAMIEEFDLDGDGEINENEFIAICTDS
In words: pull-down.

Assay [4] has as its target B1. In words: crystal structure.
The target in assay [5] is B1. In words: crystal structure. The source holds these as a separate data set.

As to B1, the binding result in assay [1], in assay [2] and in assay [3] was “binds” in each case.

For the molecule TIDSISNGILNNLLTTLIQDIVARETT (domain or fragment, S. cerevisiae, UniProt Q03067 7-33, looked up) [Sgf11-(7-33), released from GST], in assay [4], the binding result is “binds”. As for MTEETITIDSISNGILNNLLTTLIQDIVARETT (domain or fragment, S. cerevisiae, UniProt Q03067 1-33, looked up) [Sgf11-(1-33), released from GST], the binding result in assay [5] is listed as “binds”.
